T1: Recombinant FHR2, expressed in Pichia pastoris (human, UniProt P36980 19-270)
T1 construct: also called CFHR2
T1 sequence (looked up): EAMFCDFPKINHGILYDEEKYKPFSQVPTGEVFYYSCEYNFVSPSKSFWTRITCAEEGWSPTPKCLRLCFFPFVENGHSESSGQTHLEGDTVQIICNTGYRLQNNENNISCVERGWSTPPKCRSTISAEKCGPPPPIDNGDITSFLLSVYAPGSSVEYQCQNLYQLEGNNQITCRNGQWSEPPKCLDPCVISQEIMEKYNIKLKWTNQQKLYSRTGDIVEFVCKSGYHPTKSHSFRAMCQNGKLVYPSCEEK

T2: Serum-derived FHR1 (FHR1 from normal human serum, NHS) (human, UniProt Q03591 19-330)
T2 construct: mature; The background text says serum FHR1 circulates as homodimers and as heterodimers with FHR2; also called FHR1 from NHS
T2 sequence (looked up): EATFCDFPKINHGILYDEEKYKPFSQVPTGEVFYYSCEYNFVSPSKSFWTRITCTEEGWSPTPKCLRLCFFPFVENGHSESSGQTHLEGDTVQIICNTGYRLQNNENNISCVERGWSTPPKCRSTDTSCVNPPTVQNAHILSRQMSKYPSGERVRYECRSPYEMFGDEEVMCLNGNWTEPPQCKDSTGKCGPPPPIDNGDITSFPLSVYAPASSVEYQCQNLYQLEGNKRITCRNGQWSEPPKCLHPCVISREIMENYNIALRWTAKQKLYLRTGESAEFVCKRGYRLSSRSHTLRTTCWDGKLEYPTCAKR


What was measured:
[1] = biological target: T1, Recombinant FHR2, expressed in Pichia …; test: competition ELISA, FHR2 at 0-15 ug/mL against serum FHR1 on immobilized FHR1 SCR1-2
[2] = biological target: T2, Serum-derived FHR1 (FHR1 from normal …); test: ELISA, FHR1 SCR1-2 immobilized, 5% NHS, detection with mAb C18
BSA = biological target: T3, BSA (UniProt P02769 25-607); test: ELISA, BSA coated at 5 ug/mL, FHR1 detected with polyclonal FHR1 antibody
T3 construct: Control protein coated on the plate
T3 sequence (P02769 25-607 limits assumed): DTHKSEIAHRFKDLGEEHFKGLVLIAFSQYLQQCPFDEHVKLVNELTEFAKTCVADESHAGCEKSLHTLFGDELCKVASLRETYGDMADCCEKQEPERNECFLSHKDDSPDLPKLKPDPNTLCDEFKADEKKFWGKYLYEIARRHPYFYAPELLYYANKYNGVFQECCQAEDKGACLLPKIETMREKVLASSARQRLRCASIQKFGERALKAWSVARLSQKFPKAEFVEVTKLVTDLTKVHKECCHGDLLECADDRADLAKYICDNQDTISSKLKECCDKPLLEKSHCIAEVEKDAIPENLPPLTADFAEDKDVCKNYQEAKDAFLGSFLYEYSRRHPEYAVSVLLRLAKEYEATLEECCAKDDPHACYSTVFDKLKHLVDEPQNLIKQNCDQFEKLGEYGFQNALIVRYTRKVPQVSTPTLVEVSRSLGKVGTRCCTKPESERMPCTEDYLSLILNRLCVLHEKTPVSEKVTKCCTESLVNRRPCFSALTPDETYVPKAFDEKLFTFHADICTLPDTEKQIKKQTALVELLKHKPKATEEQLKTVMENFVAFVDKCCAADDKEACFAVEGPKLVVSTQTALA

Row | binding result [1] | binding result [2] | binding result (BSA) | Binder
1 | binds | binds | – | Recombinant FHR1 SCR1-2 (N-terminal fragment of FHR1) (other, human, UniProt Q03591 19-142, looked up, domain: SCR1-2; Expressed in P. pastoris; also called SCR1-2 of FHR1) EATFCDFPKINHGILYDEEKYKPFSQVPTGEVFYYSCEYNFVSPSKSFWTRITCTEEGWSPTPKCLRLCFFPFVENGHSESSGQTHLEGDTVQIICNTGYRLQNNENNISCVERGWSTPPKCRS
2 | – | – | no binding (tested: 30 ug/mL FHR1) | Recombinant factor H related protein 1 (FHR1), expressed in Pichia pastoris (other, human, UniProt Q03591 19-330, looked up, also called CFHR1; Complement Factor H-Related Protein 1) EATFCDFPKINHGILYDEEKYKPFSQVPTGEVFYYSCEYNFVSPSKSFWTRITCTEEGWSPTPKCLRLCFFPFVENGHSESSGQTHLEGDTVQIICNTGYRLQNNENNISCVERGWSTPPKCRSTDTSCVNPPTVQNAHILSRQMSKYPSGERVRYECRSPYEMFGDEEVMCLNGNWTEPPQCKDSTGKCGPPPPIDNGDITSFPLSVYAPASSVEYQCQNLYQLEGNKRITCRNGQWSEPPKCLHPCVISREIMENYNIALRWTAKQKLYLRTGESAEFVCKRGYRLSSRSHTLRTTCWDGKLEYPTCAKR
